Assay results: the DeepSol protein solubility set

Assay: soluble on expression in E. coli; label from the status in PepcDB or PDB records

Row | Sequence | soluble on expression in E. coli
1 | TPDFGFTLRGNFTYSKNKVQNWEQAYLEYPYLEYNNFPYNSIRGYQAVGLFKDEDDIKYSPKQTFGEVMPGDIKYKDINGDGMVDKLDMVPLTHSTYPLLMYGLGAEIRYKNLTLGVLFKGTGKTSFFYVGQKTTVNDETRLNGMGYMPFFEGNTGNVLTLAANPVNRWIPRDYAIAHGIDPSLAENPNARFPRLQYGNNSNNSQLSTFWQGDSRYIRLQEITLNYHLATAFLRRIGVSSLDIQFVGNNLYVWDKVKLFDPEQARWNGRVYPIPSTYSLQLYVNL | not soluble
2 | TPTVDHVLLNIALNLSSNRSHEQQYQNLIDGVAQVFPCDASCLFIFDEDGFLTPVAVKGLSSSVLGRRYFPKAHPRLDAIIHSREPVRFDADCSLPDPFDGTLLTEDQCIDVHDCMGFSLYVEGQLVGALTMDALTVGAFDDIDPVAIETFAALTAATLRNIAQLKALKAQNQKQKSVTQTLIQQARSQHG | not soluble
3 | TQYWDFCFREPDVAATDQEYREELDRLFVQAVKRQLVTDVELGSYLSGGMDSGSIAAVAAAEHPYIKTFTCGFDLNSASGIELGFDERSKAEYMSYCFKTEHYEMVLKAGDMERILPHVACHLEEPRVGQSYPNFFAAKLASRFVKVVLSGAGGDELFAGYPWRYYRAVVNDDFEHYVDKYYNFWQRLLPNSELKRVFAPIAGEVEHVWTRDIFRNVFRHHADQLYRPEDYINHSLYFEAKTFLHGLLVVEDKLSMAHGLETRVPFLDNDLVEFAMRCPIRLKLNNLAEVVKINENETGNKVRKFFEKNRDGKTILREVMNHRLPADISKAEKQGFSAPDASWFKGESLEFVRRKLLDGHSPLYEIMDAATVRELVNEHLGGIRNRRLLIWSLLSVDAWMRQT | not soluble
4 | TRMAPVIMVPGSSASQNRFDSLITELGKETPKKHSVLKLTVQTDGTIKYSGSIAANDNEPFIVIGFANNRDGKANIDKQAVWLNTAFKALVKTYHFNHFYALGHSNGGLIWTLFLERYLKESPKVHIDRLMTIASPYNMESTSTTAKTSMFKELYRYRTGLPESLTVYSIAGTENYTSDGTVPYNSVNYGKYIFQDQVKHFTEITVTGANTAHSDLPQNKQIVSLIRQYLLAETMPDK | not soluble
5 | TRVYDESGKEVGKLFGQKGTFVELDNISPYIQDAVISTEDRGFYQHKGYSIKGIARAVVGKLTFGKIGGGGGGSTITQQLAKNAYLTQEQTLDRKARELFLAIEIEKKYSKKDILAMYLNNSYFGNGVWGVQDAARKYFGVDASQVTVGEAATLAGMLKGPGIYNPIDYI | not soluble
6 | TSKQRYSGKVHLCVARYSYNPFDGPNENPEAELPLTAGKYLYVYGDMDEDGFYEGELLDGQRGLVPSNFVDFVQDNESRLAST | soluble
7 | TSSLHPTRGKLLKRFAQIGPYIREQQCQESQFFFDCLAVCVNKKVTPEKREFWGWWMELERNGEQLIYYYQVGLFDKNGDWVNQVISKKDVIESIHETLIRFHDFLQAAVSELEMTLVPDEKMSNFPLPL | soluble
8 | TTCCPSIVARSNFNVCRLPGTPEALCATYTGCIIIPGATCPGDYAN | soluble
9 | TTKKRVFHFGKGKSEGNKTMKELLGGKGANLAEMASIGLSVPPGFTVSTEACQQYQDAGCALPAGLWAEIVDGLQWVEEYMGATLGDPQRPLLLSVRSGAAVSMPGMMDTVLNLGLNDEVAAGLAAKSGERFAYDSFRRFLDMFGNVVMDIPRSLFEEKLEHMKESKGLKNDTDLTASDLKELVGQYKEVYLSAKGEPFPSDPKKQLELAVLAVFNSWESPRAKKYRSINQITGLRGTAVNVQCMVFGNMGNTSGTGVLFTRNPNTGEKKLYGEFLVNAQGEDVVAGIRTPEDLDAMKNLMPQAYDELVENCNILESHYKEMQDIEFTVQENRLWMLQCRTGKRTGKSAVKIAVDMVNEGLVEPRSAIKMVEPGHLDQLLHPQFENPSAYKDQVIATGLPASPGAAVGQVVFTAEDAEAWHSQGKAAILVRAETSPEDVGGMHAAVGILTERGGMTSHAAVVARGWGKCCVSGCSGIRVNDAEKLVTIGGHVLREGEWLSLNGSTGEVILGKQPLSPPALSGDLGTFMAWVDDVRKLKVLANADTPDDALTARNNGAQGIGLCRTEHMFFASDERIKAVRQMIMAPTLELRQQALDRLLPYQRSDFEGIFRAMDGLPVTIRLLDPPLHEFLPEGNIEDIVSELCAETGANQEDALARIEKLSEVNPMLGFRGCRLGISYPELTEMQARAIFEAAIAMTNQGVQVFPEIMVPLVGTPQELGHQVTLIRQVAEKVFANVGKTIGYKVGTMIEIPRAALVADEIAEQAEFFSFGTNDLTQMTFGYSRDDVGKFIPVYLAQGILQHDPFEVLDQRGVGELVKFATERGRKARPNLKVGICGEHGGEPSSVAFFAKAGLDYVSCSPFRVPIARLAAAQVLV | soluble
10 | TVSVLLPFVATEFYRRLVEGIEGVLLEQRYDLALFPILSLARLKRYLENTTLAYLTDGLILASYDLTERFEEGRLPTERPVVLVDAQNPRYDSVYLDNRLGGRLAGAYLARFPGPIFAIAVEEEPDRAFRRTVFAERMAGFQEALKEAGRPFSPDRLYITRHSQEGGRLALRHFLEKASPPLNVFAGADQVALGVLEEAVRLGLTPGRDVRVLGFDGHPFAEEAGLSTIAQPVEAMGARAAQLLLERMRGYQGPPREVRFEPVLVERASTGTPPAA | soluble
11 | VDLNALADLPLTYPEVGATATGRLPAGYNHLDVSTQIGTGRQRFEQAADAVMHWGMQRNAGLRVRASSETAVVSAVVLVGIAFLRAPCRVVYVIDEPDVRGFGYGTLPGHPVSGEERFAVRCDPMTSVVFAEVLSFSRPATWASKAAGPLGAVTQRFIAQRYLRAV | not soluble
12 | VDMSNVVKTYDLQDGSKVHVFKDGKMGMENKFGKSMNMPEGKVMETRDGTKIIMKGNEIFRLDEALRKGHSEGG | soluble
13 | VEGAVKTEPVDLFHPGFLNSSNYRIPALFKTKEGTLIASIDARRHGGADAPNNDIDTAVRRSEDGGKTWDEGQIIMDYPDKSSVIDTTLIQDDETGRIFLLVTHFPSKYGFWNAGLGSGFKNIDGKEYLCLYDSSGKEFTVRENVVYDKDSNKTEYTTNALGDLFKNGTKIDNINSSTAPLKAKGTSYINLVYSDDDGKTWSEPQNINFQVKKDWMKFLGIAPGRGIQIKNGEHKGRIVVPVYYTNEKGKQSSAVIYSDDSGKNWTIGESPNDNRKLENGKIINSKTLSDDAPQLTECQVVEMPNGQLKLFMRNLSGYLNIATSFDGGATWDETVEKDTNVLEPYCQLSVINYSQKVDGKDAVIFSNPNARSRSNGTVRIGLINQVGTYENGEPKYEFDWKYNKLVKPGYYAYSCLTELSNGNIGLLYEGTPSEEMSYIEMNLKYLESGANK | soluble
14 | VEREVLMNGTQAVAHAAMYADVDVVAAYPIRPYTEVMDTISKLIADGELDAEFIVAEGEHGQFETVKHASLAGARTLVGSSGVGWLYAMEAIVVTATDRAPVVAIIGNRALDDPGAYGVEHNDALMVRDVGWLLVWVDTAQEAFDTALLAYRIAEDQRVLLPLGISMDGGFLTHSEQIVRLPPRELVKNFLPPYNRGKYLVHPDNPITVAPQVNEDWVMEIRRQHEEAMERARSVIVEAYEEFKKVFGRYPGSTSDLQMPE | not soluble
15 | VGRATQSAKELDVKIKNVIRNVHILLKQISGTDGEGNNVPSGDFSREWAEAQRMMRELRNRNFGKHLREAEADKRESQLLLNRIRTWQKTHQGENNGLANSIRDSLNEYEAKLSDLRARLQEAAAQAKQANGLNQENERALGAIQRQVKEINSLQSDFTKYLTTADSSLLQTNIALQLMEKSQKEYEKLAASLNEARQELSDKVRELSRSAGKTSLVEEAEKHARSLQELAKQLEEIKRNASGDELVRCAVDAATAYENILNAIKAAEDAANRAASASESALQTVIKEDLPRKAKTLSSNSDKLLNEAKMTQKKLKQEVSPALNNLQQTLNIVTVQKEVIDTNLTTLRDGLHGIQRGDIDAMISSAKSMVRKANDITDEVLDGLNPIQTDVERIKDTYGRTQNEDFKKALTDADNSVNKLTNKLPDLWRKIESINQQLLPLGNISDNMDRIRELIQQARDAASKVAVPMRFNGKSGVEVRLPNDLEDLKGYTSLSLFLQRPNSRENGGTENMFVMYLGNKDASRDYIGMAVVDGQLTCVYNLGDREAELQVDQILTKSETKEAVMDRVKFQRIYQFARLNYTKGATSSKPETPGVYDMDGRNSNTLLNLDPENVVFYVGGYPPDFKLPSRLSFPPYKGCIELDDLNENVLSLYNFKKTFNLNTTEVEPCRRRKEESDKNYFEGTGYARVPTQPHAPIPTFGQTIQTTVDRGLLFFAENGDRFISLNIEDGKLMVRYKLNSELPKERGVGDAINNGRDHSIQIKIGKLQKRMWINVDVQNTIIDGEVFDFSTYYLGGIPIAIRERFNISTPAFRGCMKNLKKTSGVVRLNDTVGVTKKCSEDWKLVRSASFSRGGQLSFTDLGLPPTDHLQASFGFQTFQPSGILLDHQTWTRNLQVTLEDGYIELSTSDSGGPIFKSPQTYMDGLLHYVSVISDNSGLRLLIDDQLLRNSKRLKHISSSRQSLRLGGSNFEGCISNVFVQRLSLSPEVLDLTSNSLKRDVSLGGCSLNKPPFLMLLKGSTRFNKTKTFRINQLLQDTPVASPRSVKVWQDACSPLPKTQANHGALQFGDIPTSHLLFKLPQELLKPRSQFAVDMQTTSSRGLVFHTGTKNSFMALYLSKGRLVFALGTDGKKLRIKSKEKCNDGKWHTVVFGHDGEKGRLVVDGLRAREGSLPGNSTISIRAPVYLGSPPSGKPKSLPTNSFVGCLKNFQLDSKPLYTPSSSFGVSSCLGGPLEKGIYFSEEGGHVVLAHSVLLGPEFKLVFSIRPRSLTGILIHIGSQPGKHLCVYLEAGKVTASMDSGAGGTSTSVTPKQSLCDGQWHSVAVTIKQHILHLELDTDSSYTAGQIPFPPASTQEPLHLGGAPANLTTLRIPVWKSFFGCLRNIHVNHIPVPVTEALEVQGPVSLNGCPDQ | soluble
16 | VGVAVDRDELLGANAPPQGGSFRFYLDGERWEWSDSVARMHGYQPGEVIPTNEILLSHKHPDDQSQVAALFDKMIHAGEPFSSKHRIIDTDRRIHHVIVVGDRMLDENGQVIGTSGYYIDVTETLETDLREFNEALTEAVAGLEKSRAVIEQAKGALMLVYGISSERAFGILTWRSQETNIKLHTLAERFVGALAAEATLPASFRARFDHLLLTAHEYPDEQADHPA | not soluble
17 | VGYGDITQVETSGASSKTSRQDKLEYDGVRASHTMAQTDAGRMEKYKSFINNVAKKHVVDPAVIAAIISRESRAGNVIFNTTPPGWGDNYNGFGLMQVDKRYHEPRGAWNSEEHIDQATGILVNFIQLIQKKFPSWSTEQQLKGAIAAYNTGDGRVESYESVDSRTTGKDYSNDVVARAQWYKKNGF | soluble
18 | VHADLAATTSREDFRLLAAEHRVVPVTRKVLADSETPLSAYRKLAANRPGTFLLESAENGRSWSRWSFIGAGAPTALTVREGQAVWLGAVPKDAPTGGDPLRALQVTLELLATADRQSEPGLPPLSGGMVGFFAYDMVRRLERLPERAVDDLCLPDMLLLLATDVAAVDHHEGTITLIANAVNWNGTDERVDWAYDDAVARLDVMTAALGQPLPSTVATFSRPEPRHRAQRTVEEYGAIVEYLVDQIAAGEAFQVVPSQRFEMDTDVDPIDVYRILRVTNPSPYMYLLQVPNSDGAVDFSIVGSSPEALVTVHEGWATTHPIAGTRWRGRTDDEDVLLEKELLADDKERAEHLMLVDLGRNDLGRVCTPGTVRVEDYSHIERYSHVMHLVSTVTGKLGEGRTALDAVTACFPAGTLSGAPKVRAMELIEEVEKTRRGLYGGVVGYLDFAGNADFAIAIRTALMRNGTAYVQAGGGVVADSNGSYEYNEARNKARAVLNAIAAAETLAAPGANRSGC | soluble
